The text below walks through data of patent US20220175781A1, “CD40L COMPOSITIONS AND METHODS FOR TUNABLE REGULATION” (Obsidian Therapeutics, Inc., priority 2019, published 2022).

“And” between values parts separate entries of the source, which are not always exact repeats. Equal values may be shown once.

The test system of test [1] is T cells co-cultured with monocyte derived dendritic cells (mDC). Briefly: CD40L levels in T cells in mDC co-culture (FACS). The settings on record: mDC co-culture 2 days. In kind it is cell-based. An excerpt: In order to engage dendritic cells in an immune response, dendritic cells must be converted to a functional state by an antigen-specific CD4+ helper T cell. Activation of the dendritic cells may be followed by the activation of CD8+ T cells by the dendritic cells, a process referred to as dendritic cell licensing. Engagement of the CD40L expressed on the CD4+ cells with the CD40 on the dendritic cells can result in (i) dendritic cell stimulation-measured by expression of co-stimulatory and MHC molecules (ii) proinflammatory cytokine release (e.g. IL12, TNFα and INFγ) (iii) epitope spreading. To measure the effect of CD40L expression that is tuned by the biocircuits of the present disclosure, CD4+ T cells or Jurkat cells expressing any of the CD40L constructs described herein were co-cultured with dendritic cells.
Dendritic cell function in response to co-culture with T cells expressing CD40L was evaluated in the presence of ligand or corresponding vehicle control. Monocyte derived dendritic cells (mDC) (CD14+) were isolated from fresh blood and cultured for 5 days with IL-4 (7.5 ng/mL) and GM-CSF (20 ng/mL). The mDCs were frozen down after the 5 day culture. T cells were transduced with OT-001662 and expanded for 9 days before being frozen down. mDCs and T cells were thawed and co-cultured 1:10 DC: T cell ratio (i.e. 5×10^4 DCs: 5×10^5 T cells). mDC and T cells were co-cultured for 2 days before cells were collected for flow cytometry and supernatants were collected for cytokine analysis. For evaluation of regulated constructs, ligand (various doses of TMP) was added at the time initiating the co-culture and was kept in the co-culture for 2 days. Cytokines were analyzed by MSD after a single freeze thaw cycle. All cells were cultured in complete RPMI with 10% FBS during the course of the experiment. SR indicates stabilization ratio.

The subject of test [2] is T cells (CD4 and CD8 positive). In words: CD40L MFI in vitro in CD4 and CD8 positive T cells, 10 μM TMP. It is filed as cell-based. Particulars: constitutive, ligand not given. How it is done:
T cells were transduced with OT-001662 and then treated with 10 μM TMP on day 4. CD40L expression was analyzed by FACS both in the CD4 and CD8 positive T cell populations.

Test [3] relates to T cells. In words: % CD40L positive cells in vivo, transduced T cells in NSG mice dosed with TMP. Further details: species or system NSG female mice. The settings on record: constitutive construct. How it is done:
Based on the in vitro data, regulatability of CD40L constructs in vivo was tested. 10-week old NSG female mice were injected with T cells transduced with one of the following constructs empty vector, OT-001661, and OT-001662 (day 0). On day 1, mice were pre-bled prior to dose with ligand. On day 2, mice were dosed every 4 hours with TMP at 500 mg/kg body weight of the mouse or vehicle control. Two hours after every dose, blood was collected from the mice to measure CD40L levels. On day 3, i.e. 24 hours after the first dose, mice were terminally bled for analysis. The values in bold represent the average values for each bleed.

Test [4] relates to T cells (CD4+ and CD8+). In words: Regulation of CD40L in T cells by different drug responsive domains. It is filed as cell-based. Particulars: Ligand N/A.
Test [5] deals with CD8+ T cells. Briefly: Ligand dose response, % CD40L positive cells, CD8+ T cells. In kind it is cell-based. How it is done: Ligand dose response curve experiments were performed with increasing doses of ligand using OT-001662 and OT-001666 constructs in both CD4+ as well as CD8+ T cells.
The experiments were conducted using three different volumes of virus for transduction i.e. 0.5, 2 and 10 μL.

B1: OT-001661: constitutively expressed full length CD40L construct (protein)
chain: MHMIETYNQTSPRSAATGLPISMKIFMYLLTVFLITQMIGSALFAVYLHRRLDKIEDERNLHEDFVFMKTIQRCNTGERSLSLLNCEEIKSQFEGFVKDIMLNKEETKKENSFEMQKGDQNPQIAAHVISEASSKTTSVLQWAEKGYYTMSNNLVTLENGKQLTVKRQGLYYIYAQVTFCSNREASSQAPFIASLCLKSPGRFERILLRAANTHSSAKPCGQQSIHLGGVFELQPGASVFVNVTDPSQVSHGTGFTSFGLLKL
B1: the “% CD40L+” value in test [1] (CD4+, DMSO) worked out at 68.1%; in test [1] (CD4+, TMP), 68.3%; in test [1] (CD8+, DMSO) it was 62.2%; in test [1] (CD8+, TMP), 62.3%. In addition, the “CD40L MFI” value in test [1] (CD4+, DMSO) was determined as 579; in test [1] (CD4+, TMP), 580; in test [1] (CD8+, DMSO), 495; in test [1] (CD8+, TMP) it was 499. Further, the figures for the “CD40L MFI in vitro” value in test [2] (CD4+) and in test [2] (CD8+) were 24489 and 14352, respectively. The “% CD40L positive cells in vivo” value was 90.1% in test [3] (0 hours, average); 80.9% and 87.1% and 84.4% and 107.8% in test [3] (0 hours, individual values); 62.3% in test [3] (2 hours, average); 85.6% and 67.4% and 33.3% and 62.7% in test [3] (2 hours, individual values); 55.8% in test [3] (24 hours, average); 53.5% and 66.7% and 61.0% and 41.9% in test [3] (24 hours, individual values). Moreover, the CD40L positive in test [4] (All Cells) came out at 98%; in test [4] (CD4+), 98.7%; in test [4] (CD8+), 97.8%. Further, the MFI in test [4] (All Cells) came to 20451; in test [4] (CD4+), 24489; in test [4] (CD8+) it was 14352.

B2: OT-001666 (Met; ER (305-549 of WT, L384M, N413D, M421G, G521R, Y537S); Histidine; CD40L; stop) (ligand)
chain: MSLALSLTADQMVSALLDAEPPILYSEYDPTRPFSEASMMGLLTNLADRELVHMINWAKRVPGFVDLTLHDQVHLLECAWMEILMIGLVWRSMEHPGKLLFAPNLLLDRDQGKCVEGGVEIFDMLLATSSRFRMMNLQGEEFVCLKSIILLNSGVYTFLSSTLKSLEEKDHIHRVLDKITDTLIHLMAKAGLTLQQQHQRLAQLLLILSHIRHMSNKRMEHLYSMKCKNVVPLSDLLLEMLDAHRLHMIETYNQTSPRSAATGLPISMKIFMYLLTVFLITQMIGSALFAVYLHRRLDKIEDERNLHEDFVFMKTIQRCNTGERSLSLLNCEEIKSQFEGFVKDIMLNKEETKKENSFEMQKGDQNPQIAAHVISEASSKTTSVLQWAEKGYYTMSNNLVTLENGKQLTVKRQGLYYIYAQVTFCSNREASSQAPFIASLCLKSPGRFERILLRAANTHSSAKPCGQQSIHLGGVFELQPGASVFVNVTDPSQVSHGTGFTSFGLLKL
B2: the “% CD40L positive cells” value in test [5] (2 μL virus, BZD 0.05 nM) is given as 0.69%; in test [5] (2 μL virus, BZD 0.5 nM) it was 0.52%; in test [5] (2 μL virus, BZD 5 nM) it was 0.71%; in test [5] (2 μL virus, BZD 50 nM) it was 3.32%; in test [5] (2 μL virus, BZD 500 nM), 60%; in test [5] (10 μL virus, BZD 0.05 nM), 0.5%. For the same molecule, the “% CD40L positive cells” value in test [5] (10 μL virus, BZD 0.5 nM) is 0.2%; in test [5] (10 μL virus, BZD 5 nM), 0.23%; in test [5] (10 μL virus, BZD 50 nM), 17.7%; in test [5] (10 μL virus, BZD 500 nM) it was 68.5%.
